Data published in patent US20100260805A1 (CIRCASSIA, published 2010).

Tests used:
[1] = target: T1, HLA-DRB1*0101 (human); test: competitive MHC class II binding assay
T1 construct: human MHC class II allotype

[2] = target: T2, HLA-DRB1*0301 (human); test: competitive MHC class II binding assay
T2 construct: human MHC class II allotype

[3] = target: T3, HLA-DRB1*0401 (human); test: competitive MHC class II binding assay
T3 construct: human MHC class II allotype

[4] = target: T4, HLA-DRB1*0701 (human); test: competitive MHC class II binding assay
T4 construct: human MHC class II allotype

[5] = target: T5, HLA-DRB1*1101 (human); test: competitive MHC class II binding assay
T5 construct: human MHC class II allotype

[6] = target: T6, HLA-DRB1*1301 (human); test: competitive MHC class II binding assay
T6 construct: human MHC class II allotype

[7] = target: T7, HLA-DRB1*1501 (human); test: competitive MHC class II binding assay
T7 construct: human MHC class II allotype

[8] = target: T8, DQA1*0102/DQB1*0602 (human, UniProt P01920 33-230, limits assumed); test: competitive MHC class II binding assay
T8 construct: human MHC class II allotype
T8 MHC II alpha: not shown
T8 MHC II beta: not shown

[9] = target: T4, HLA-DRB1*0701; test: competitive MHC class II binding assay; competitor: control peptide Influenza haemagglutinin 307-319;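 for ratio of IC50 to that of the control peptide: each peptide was tested for its capacity to displace a known reference binder from human MHC class II allotypes, and its IC50 is expressed relative to that of the reference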
[10] = target: T5, HLA-DRB1*1101; test: as above
[11] = target: T8, DQA1*0102/DQB1*0602; test: competitive MHC class II binding assay; competitor: control peptide Human Insulin B 1-15
[12] = target: T3, HLA-DRB1*0401; test: competitive MHC class II binding assay; competitor: control peptide Influenza haemagglutinin 307-319;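 for ratio of IC50 to that of the control peptide: each peptide was tested for its capacity to displace a known reference binder from human MHC class II allotypes, and its IC50 is expressed relative to that of the reference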

## HIGIIDLKGELDMRN [HDM31A]
[1]
  binding result: no binding
[2]
  binding result: no binding
[3]
  binding result: no binding
[4]
  binding result: no binding
[5]
  binding result: no binding
[6]
  binding result: no binding
[7]
  binding result: no binding
[8]
  binding result: no binding

## IGIKDLDAFRHYD [HDM11]
[1]
  binding result: no binding
[2]
  binding result: no binding
[3]
  binding result: no binding
[4]
  binding result: no binding
[5]
  binding result: no binding
[6]
  binding result: no binding
[7]
  binding result: no binding
[8]
  binding result: no binding

## KAVDEAVAAIEKS [HDM28]
[1]
  binding result: no binding
[2]
  binding result: no binding
[3]
  binding result: no binding
[4]
  binding result: no binding
[5]
  binding result: no binding
[6]
  binding result: no binding
[7]
  binding result: no binding
[8]
  binding result: no binding

## KVLAPAFKKELER [HDM50]
[1]
  binding result: no binding
[2]
  binding result: no binding
[3]
  binding result: no binding
[4]
  binding result: no binding
[5]
  binding result: no binding
[6]
  binding result: no binding
[7]
  binding result: no binding
[8]
  binding result: no binding

## VDFKGELAMRNIE [HDM51]
[9]
  ratio of IC50 to that of the control peptide: 20.9 ratio
[10]
  ratio of IC50 to that of the control peptide: 30.9 ratio

## AKIEIKASLDGLE [HDM27]
[1]
  binding result: no binding
[2]
  binding result: no binding
[3]
  binding result: no binding
[4]
  binding result: no binding
[5]
  binding result: no binding
[6]
  binding result: no binding
[7]
  binding result: no binding
[8]
  binding result: no binding

## VSMEYDLAYKLGDLH [HDM40A]
[9]
  ratio of IC50 to that of the control peptide: 2.29 ratio
[10]
  ratio of IC50 to that of the control peptide: 6 ratio

## PNVNKIREALAQT [HDM07]
[1]
  binding result: no binding
[2]
  binding result: no binding
[3]
  binding result: no binding
[4]
  binding result: no binding
[5]
  binding result: no binding
[6]
  binding result: no binding
[7]
  binding result: no binding
[8]
  binding result: no binding

## ETFDPMKVPDHSDK [HDM29A]
[1]
  binding result: no binding
[2]
  binding result: no binding
[3]
  binding result: no binding
[4]
  binding result: no binding
[5]
  binding result: no binding
[6]
  binding result: no binding
[7]
  binding result: no binding
[8]
  binding result: no binding

## RYVAREQSCRRPN [HDM06]
[11]
  ratio of IC50 to that of the control peptide: 0.86 ratio
[10]
  ratio of IC50 to that of the control peptide: 30.4 ratio

## RNSWDTNWGDNGYG [HDM16A]
[1]
  binding result: no binding
[2]
  binding result: no binding
[3]
  binding result: no binding
[4]
  binding result: no binding
[5]
  binding result: no binding
[6]
  binding result: no binding
[7]
  binding result: no binding
[8]
  binding result: no binding

## EAVFEANQNTKTAK [HDM22A]
[12]
  ratio of IC50 to that of the control peptide: 329 ratio
[10]
  ratio of IC50 to that of the control peptide: 80 ratio

## RNQSLDLAEQELVDCASQH [HDM03C]
[11]
  ratio of IC50 to that of the control peptide: 0.16 ratio

## KRVGDANVKSEDG [HDM36]
[1]
  binding result: no binding
[2]
  binding result: no binding
[3]
  binding result: no binding
[4]
  binding result: no binding
[5]
  binding result: no binding
[6]
  binding result: no binding
[7]
  binding result: no binding
[8]
  binding result: no binding

## ANVKSEDGVVKAH [HDM37]
[1]
  binding result: no binding
[2]
  binding result: no binding
[3]
  binding result: no binding
[4]
  binding result: no binding
[5]
  binding result: no binding
[6]
  binding result: no binding
[7]
  binding result: no binding
[8]
  binding result: no binding

## ETFDPMKVPDHSD [HDM29]
[1]
  binding result: no binding
[2]
  binding result: no binding
[3]
  binding result: no binding
[4]
  binding result: no binding
[5]
  binding result: no binding
[6]
  binding result: no binding
[7]
  binding result: no binding
[8]
  binding result: no binding

## NKIREALAQTHSA [HDM08]
[1]
  binding result: no binding
[2]
  binding result: no binding
[3]
  binding result: no binding
[4]
  binding result: no binding
[5]
  binding result: no binding
[6]
  binding result: no binding
[7]
  binding result: no binding
[8]
  binding result: no binding

## RTIIQRDNGYQPNY (solubility test: NO) [HDM13]
[1]
  binding result: no binding
[2]
  binding result: no binding
[3]
  binding result: no binding
[4]
  binding result: no binding
[5]
  binding result: no binding
[6]
  binding result: no binding
[7]
  binding result: no binding
[8]
  binding result: no binding

## DKFERHIGIIDLK [HDM30]
[9]
  ratio of IC50 to that of the control peptide: 6.2 ratio

## RGLKQMKRVGDAN [HDM35]
[10]
  ratio of IC50 to that of the control peptide: 1.26 ratio

## KDLDAFRHYDGRT [HDM12]
[1]
  binding result: no binding
[2]
  binding result: no binding
[3]
  binding result: no binding
[4]
  binding result: no binding
[5]
  binding result: no binding
[6]
  binding result: no binding
[7]
  binding result: no binding
[8]
  binding result: no binding

## EYIQHNGVVQESY [HDM05]
[1]
  binding result: no binding
[2]
  binding result: no binding
[3]
  binding result: no binding
[4]
  binding result: no binding
[5]
  binding result: no binding
[6]
  binding result: no binding
[7]
  binding result: no binding
[8]
  binding result: no binding

## NSVNVPSELDLRSLRT [HDM17]
[1]
  binding result: no binding
[2]
  binding result: no binding
[3]
  binding result: no binding
[4]
  binding result: no binding
[5]
  binding result: no binding
[6]
  binding result: no binding
[7]
  binding result: no binding
[8]
  binding result: no binding

## IDLKGELDMRNIQVR [HDM32A]
[1]
  binding result: no binding
[2]
  binding result: no binding
[3]
  binding result: no binding
[4]
  binding result: no binding
[5]
  binding result: no binding
[6]
  binding result: no binding
[7]
  binding result: no binding
[8]
  binding result: no binding

## IGIIDLKGELDMRN [HDM31]
[1]
  binding result: no binding
[2]
  binding result: no binding
[3]
  binding result: no binding
[4]
  binding result: no binding
[5]
  binding result: no binding
[6]
  binding result: no binding
[7]
  binding result: no binding
[8]
  binding result: no binding

## HDDVVSMEYDLAYKL [HDM39A]
[11]
  ratio of IC50 to that of the control peptide: 0.1 ratio
[12]
  ratio of IC50 to that of the control peptide: 76.2 ratio
[9]
  ratio of IC50 to that of the control peptide: 0.71 ratio

## KSETFDPMKVPDHSD [HDM29B]
[1]
  binding result: no binding
[2]
  binding result: no binding
[3]
  binding result: no binding
[4]
  binding result: no binding
[5]
  binding result: no binding
[6]
  binding result: no binding
[7]
  binding result: no binding
[8]
  binding result: no binding
